Results on 1 molecule are retold here after paper PMC4995487, “Tyrosine phosphorylation and protein degradation control the transcriptional activity of WRKY involved in benzylisoquinoline alkaloid biosynthesis”.

The target in this data set is GST-CjWRKY1 WT (Coptis japonica, UniProt A0ZT25 1-185). Put plainly: EMSA; 0.05 ug/ul poly(dI-dC), 1 mM MgCl2; EMSA: 20 fmol biotin probe, 3 ug protein, 1x LightShift binding buffer, 1 mM MgCl2, 0.5 mM EDTA, 0.05 ug/ul poly(dI-dC), 20 min at 4 C, 5% polyacrylamide gel; pH and salt not given. The note with it: protein: recombinant; tags: N-terminal GST (pGEX-6P-1); label: biotin; blunt. (Mobility shift assays separate free from complexed probe on a gel.)
Sequence of GST-CjWRKY1 WT (A0ZT25 entry or part of it): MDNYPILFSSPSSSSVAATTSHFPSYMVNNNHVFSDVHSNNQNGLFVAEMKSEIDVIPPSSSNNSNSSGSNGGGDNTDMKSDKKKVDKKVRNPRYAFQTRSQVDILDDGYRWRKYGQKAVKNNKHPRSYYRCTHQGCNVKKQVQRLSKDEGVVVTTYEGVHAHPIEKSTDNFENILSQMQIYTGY

B1: 3x W-box probe (CYP80B2 promoter) (dsDNA)
DNA 1: CTGCTGACTAGCTGACTAGCTGACTAGATGG
DNA 2: CCATCTAGTCAGCTAGTCAGCTAGTCAGCAG
On to B1, for which the binding result is “binds”.
